The term Kd denotes the free concentration of one partner at which half of the binding sites on the other are occupied at equilibrium, for simple one-to-one binding. A low value points to a tighter complex.

To fix the notation:
T1: EsCas13d, nuclease-dead (Eubacterium siraeum, UniProt B0MS50, R295A;H300A;R849A;H854A)
T1 sequence: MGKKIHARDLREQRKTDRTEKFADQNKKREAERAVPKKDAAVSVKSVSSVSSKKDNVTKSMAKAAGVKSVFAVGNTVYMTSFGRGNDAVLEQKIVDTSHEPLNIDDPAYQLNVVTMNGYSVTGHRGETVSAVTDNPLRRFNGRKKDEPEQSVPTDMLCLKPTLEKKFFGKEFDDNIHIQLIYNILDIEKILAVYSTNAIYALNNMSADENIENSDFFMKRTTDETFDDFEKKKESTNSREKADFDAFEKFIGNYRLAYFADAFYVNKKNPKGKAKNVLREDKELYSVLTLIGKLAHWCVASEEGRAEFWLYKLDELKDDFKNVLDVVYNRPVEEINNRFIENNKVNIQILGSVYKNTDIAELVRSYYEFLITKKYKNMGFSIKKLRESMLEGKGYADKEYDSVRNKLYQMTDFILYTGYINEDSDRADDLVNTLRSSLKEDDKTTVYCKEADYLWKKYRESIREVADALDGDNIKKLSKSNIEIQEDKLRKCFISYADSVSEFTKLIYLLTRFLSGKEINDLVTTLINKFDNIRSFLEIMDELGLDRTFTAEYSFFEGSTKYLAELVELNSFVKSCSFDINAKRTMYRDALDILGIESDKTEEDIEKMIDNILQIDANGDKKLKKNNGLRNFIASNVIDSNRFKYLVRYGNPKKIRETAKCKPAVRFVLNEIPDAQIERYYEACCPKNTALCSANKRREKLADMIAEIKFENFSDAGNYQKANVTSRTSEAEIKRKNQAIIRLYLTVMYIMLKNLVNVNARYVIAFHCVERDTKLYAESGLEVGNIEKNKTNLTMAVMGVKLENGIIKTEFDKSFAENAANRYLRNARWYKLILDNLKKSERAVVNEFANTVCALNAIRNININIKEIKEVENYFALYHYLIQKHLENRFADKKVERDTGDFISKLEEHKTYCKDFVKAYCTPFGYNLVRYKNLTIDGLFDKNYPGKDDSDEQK

B1: target 1 insG 3' of 6,insU 3' of 1 (mixed)
RNA 1: CACCCGUGCAAAAAUGCAGGGGUCUAAAACUGAGCGGAUAACCUCUCUAUGG
RNA 2: GGGAAUGGAUCCACAUCUACGAAUUCGUACCAUAGAGAGGUUAUCCGGCUCAUCCGAGAUCGGAAGAGCACACGU
B2: target 1 C2U,G15C (mixed)
RNA 1: CACCCGUGCAAAAAUGCAGGGGUCUAAAACUGAGCGGAUAACCUCUCUAUGG
RNA 2: GGGAAUGGAUCCACAUCUACGAAUUCGUACCAUAGACAGGUUAUCCGCUUACCGAGAUCGGAAGAGCACACGU
B3: target 1 A1G,A20C (mixed)
RNA 1: CACCCGUGCAAAAAUGCAGGGGUCUAAAACUGAGCGGAUAACCUCUCUAUGG
RNA 2: GGGAAUGGAUCCACAUCUACGAAUUCGUACCCUAGAGAGGUUAUCCGCUCGCCGAGAUCGGAAGAGCACACGU
B4: target 1 insA 3' of 12,insU 3' of 12 (mixed)
RNA 1: CACCCGUGCAAAAAUGCAGGGGUCUAAAACUGAGCGGAUAACCUCUCUAUGG
RNA 2: GGGAAUGGAUCCACAUCUACGAAUUCGUACCAUAGAGAGGAUUUAUCCGCUCACCGAGAUCGGAAGAGCACACGU
B5: target 1 insC 3' of 15,insC 3' of 8 (mixed)
RNA 1: CACCCGUGCAAAAAUGCAGGGGUCUAAAACUGAGCGGAUAACCUCUCUAUGG
RNA 2: GGGAAUGGAUCCACAUCUACGAAUUCGUACCAUAGAGCAGGUUAUCCCGCUCACCGAGAUCGGAAGAGCACACGU
B6: target 1 insG 3' of 16,insU 3' of 4 (mixed)
RNA 1: CACCCGUGCAAAAAUGCAGGGGUCUAAAACUGAGCGGAUAACCUCUCUAUGG
RNA 2: GGGAAUGGAUCCACAUCUACGAAUUCGUACCAUAGAGGAGGUUAUCCGCUUCACCGAGAUCGGAAGAGCACACGU
B7: target 1 insG 3' of 19,insG 3' of 2 (mixed)
RNA 1: CACCCGUGCAAAAAUGCAGGGGUCUAAAACUGAGCGGAUAACCUCUCUAUGG
RNA 2: GGGAAUGGAUCCACAUCUACGAAUUCGUACCAUGAGAGAGGUUAUCCGCUCGACCGAGAUCGGAAGAGCACACGU
B8: target 1 del6,del7 (mixed)
RNA 1: CACCCGUGCAAAAAUGCAGGGGUCUAAAACUGAGCGGAUAACCUCUCUAUGG
RNA 2: GGGAAUGGAUCCACAUCUACGAAUUCGUACCAUAGAGAGGUUAUGCUCACCGAGAUCGGAAGAGCACACGU
B9: target 1 insU 3' of 5,insG 3' of 2 (mixed)
RNA 1: CACCCGUGCAAAAAUGCAGGGGUCUAAAACUGAGCGGAUAACCUCUCUAUGG
RNA 2: GGGAAUGGAUCCACAUCUACGAAUUCGUACCAUAGAGAGGUUAUCCGUCUCGACCGAGAUCGGAAGAGCACACGU
B10: target 1 insC 3' of 8,insG 3' of 6 (mixed)
RNA 1: CACCCGUGCAAAAAUGCAGGGGUCUAAAACUGAGCGGAUAACCUCUCUAUGG
RNA 2: GGGAAUGGAUCCACAUCUACGAAUUCGUACCAUAGAGAGGUUAUCCCGGCUCACCGAGAUCGGAAGAGCACACGU
B11: target 1 C2A,U10G (mixed)
RNA 1: CACCCGUGCAAAAAUGCAGGGGUCUAAAACUGAGCGGAUAACCUCUCUAUGG
RNA 2: GGGAAUGGAUCCACAUCUACGAAUUCGUACCAUAGAGAGGUGAUCCGCUAACCGAGAUCGGAAGAGCACACGU
B12: target 1 A20C,C21A (mixed)
RNA 1: CACCCGUGCAAAAAUGCAGGGGUCUAAAACUGAGCGGAUAACCUCUCUAUGG
RNA 2: GGGAAUGGAUCCACAUCUACGAAUUCGUACACUAGAGAGGUUAUCCGCUCACCGAGAUCGGAAGAGCACACGU
B13: target 1 insG 3' of 8,insU 3' of 4 (mixed)
RNA 1: CACCCGUGCAAAAAUGCAGGGGUCUAAAACUGAGCGGAUAACCUCUCUAUGG
RNA 2: GGGAAUGGAUCCACAUCUACGAAUUCGUACCAUAGAGAGGUUAUGCCGCUUCACCGAGAUCGGAAGAGCACACGU
B14: target 1 insG 3' of 11,insG 3' of 3 (mixed)
RNA 1: CACCCGUGCAAAAAUGCAGGGGUCUAAAACUGAGCGGAUAACCUCUCUAUGG
RNA 2: GGGAAUGGAUCCACAUCUACGAAUUCGUACCAUAGAGAGGUGUAUCCGCUGCACCGAGAUCGGAAGAGCACACGU
B15: target 1 G5U,U11C (mixed)
RNA 1: CACCCGUGCAAAAAUGCAGGGGUCUAAAACUGAGCGGAUAACCUCUCUAUGG
RNA 2: GGGAAUGGAUCCACAUCUACGAAUUCGUACCAUAGAGAGGCUAUCCUCUCACCGAGAUCGGAAGAGCACACGU
B16: target 1 G13A,A20U (mixed)
RNA 1: CACCCGUGCAAAAAUGCAGGGGUCUAAAACUGAGCGGAUAACCUCUCUAUGG
RNA 2: GGGAAUGGAUCCACAUCUACGAAUUCGUACCUUAGAGAAGUUAUCCGCUCACCGAGAUCGGAAGAGCACACGU
B17: target 1 U3G,C6A (mixed)
RNA 1: CACCCGUGCAAAAAUGCAGGGGUCUAAAACUGAGCGGAUAACCUCUCUAUGG
RNA 2: GGGAAUGGAUCCACAUCUACGAAUUCGUACCAUAGAGAGGUUAUCAGCGCACCGAGAUCGGAAGAGCACACGU
B18: target 1 insU 3' of 17,insU 3' of 7 (mixed)
RNA 1: CACCCGUGCAAAAAUGCAGGGGUCUAAAACUGAGCGGAUAACCUCUCUAUGG
RNA 2: GGGAAUGGAUCCACAUCUACGAAUUCGUACCAUAGUAGAGGUUAUCUCGCUCACCGAGAUCGGAAGAGCACACGU
B19: target 1 insA 3' of 19,insA 3' of 8 (mixed)
RNA 1: CACCCGUGCAAAAAUGCAGGGGUCUAAAACUGAGCGGAUAACCUCUCUAUGG
RNA 2: GGGAAUGGAUCCACAUCUACGAAUUCGUACCAUAAGAGAGGUUAUACCGCUCACCGAGAUCGGAAGAGCACACGU
B20: target 1 insA 3' of 15,insG 3' of 3 (mixed)
RNA 1: CACCCGUGCAAAAAUGCAGGGGUCUAAAACUGAGCGGAUAACCUCUCUAUGG
RNA 2: GGGAAUGGAUCCACAUCUACGAAUUCGUACCAUAGAGAAGGUUAUCCGCUGCACCGAGAUCGGAAGAGCACACGU
B21: target 1 C7U,U8G (mixed)
RNA 1: CACCCGUGCAAAAAUGCAGGGGUCUAAAACUGAGCGGAUAACCUCUCUAUGG
RNA 2: GGGAAUGGAUCCACAUCUACGAAUUCGUACCAUAGAGAGGUUAGUCGCUCACCGAGAUCGGAAGAGCACACGU
B22: target 1 C6U,A14G (mixed)
RNA 1: CACCCGUGCAAAAAUGCAGGGGUCUAAAACUGAGCGGAUAACCUCUCUAUGG
RNA 2: GGGAAUGGAUCCACAUCUACGAAUUCGUACCAUAGAGGGGUUAUCUGCUCACCGAGAUCGGAAGAGCACACGU
B23: target 1 insA 3' of 11,insG 3' of 1 (mixed)
RNA 1: CACCCGUGCAAAAAUGCAGGGGUCUAAAACUGAGCGGAUAACCUCUCUAUGG
RNA 2: GGGAAUGGAUCCACAUCUACGAAUUCGUACCAUAGAGAGGUAUAUCCGCUCAGCCGAGAUCGGAAGAGCACACGU
B24: target 1 U8A,U11A (mixed)
RNA 1: CACCCGUGCAAAAAUGCAGGGGUCUAAAACUGAGCGGAUAACCUCUCUAUGG
RNA 2: GGGAAUGGAUCCACAUCUACGAAUUCGUACCAUAGAGAGGAUAACCGCUCACCGAGAUCGGAAGAGCACACGU
B25: target 1 G13C,A14U (mixed)
RNA 1: CACCCGUGCAAAAAUGCAGGGGUCUAAAACUGAGCGGAUAACCUCUCUAUGG
RNA 2: GGGAAUGGAUCCACAUCUACGAAUUCGUACCAUAGAGUCGUUAUCCGCUCACCGAGAUCGGAAGAGCACACGU
B26: target 1 insA 3' of 11,insA 3' of 3 (mixed)
RNA 1: CACCCGUGCAAAAAUGCAGGGGUCUAAAACUGAGCGGAUAACCUCUCUAUGG
RNA 2: GGGAAUGGAUCCACAUCUACGAAUUCGUACCAUAGAGAGGUAUAUCCGCUACACCGAGAUCGGAAGAGCACACGU
B27: target 1 insC 3' of 10,insA 3' of 4 (mixed)
RNA 1: CACCCGUGCAAAAAUGCAGGGGUCUAAAACUGAGCGGAUAACCUCUCUAUGG
RNA 2: GGGAAUGGAUCCACAUCUACGAAUUCGUACCAUAGAGAGGUUCAUCCGCAUCACCGAGAUCGGAAGAGCACACGU

This series has as its target T1, EsCas13d, nuclease-dead. The series is described as follows: crRNA (strand 1, pre-loaded); Mg2+; 40 mM Tris-HCl pH 7.5, 150 mM NaCl, 6 mM MgCl2, 1 mM DTT, 0.1% Tween-20, 0.2 mg/ml BSA; 25 C; 10 min per concentration, then washed. The settings on record: tags: His6-TwinStrep-SUMO cleaved; N-terminal SNAP kept (SNAP-Surface 488); label: 3' end held by stalled T7 RNA polymerase.
B1 yielded a Kd of 17.8 ± 2.3 nM.

In turn, B2 displayed a Kd of 49 ± 5 nM.

Turning to B3, the Kd was found to be 41 ± 4 nM.

Take B4: binding was put at a Kd of 58 ± 16 nM.

Take B5: the dissociation constant (Kd) amounted to 26.2 ± 2.8 nM.

In the case of B6, binding was characterised by a dissociation constant (Kd) of 13.9 ± 0.6 nM. This Kd lies about 1.9-fold lower than the previous one.

With B7, binding was put at a Kd of 99 ± 26 nM.

B8 gave a Kd of 11.4 ± 0.7 nM.

In turn, B9 registered a Kd of 9.1 ± 0.5 nM.

B10: the Kd amounted to 17.1 ± 1.3 nM.

B11 came in with a Kd of 28 ± 1.9 nM.

In turn, B12 came in with a Kd of 5.63 ± 0.34 nM.

For B13, the Kd came out at 9.44 ± 0.34 nM.

Turning to B14, the Kd stood at 42 ± 7 nM.

As to B15, the affinity, expressed as Kd, was 61 ± 8 nM.

B16 displayed a Kd of 14.5 ± 2.2 nM.

B17 had a Kd of 6.3 ± 0.4 nM. Against the preceding molecule, the Kd is about 2.3-fold lower.

Molecule B18 registered a Kd of 25.4 ± 1 nM.

In turn, B19 displayed a Kd of 31.1 ± 2.7 nM. The Kd values of the last two molecules are within 1.5-fold of each other.

The molecule B20 returned a Kd of 5.1 ± 0.4 nM.

Turning to B21, the dissociation constant Kd was determined as 14.2 ± 1 nM. Against the preceding molecule, the Kd is about 2.8-fold higher.

The molecule B22 showed a dissociation constant (Kd) of 14.2 ± 0.7 nM.

Molecule B23 showed a Kd of 20.8 ± 1 nM.

B24 had a Kd of 26.8 ± 1.9 nM.

For the molecule B25, the Kd was 13.1 ± 1.1 nM.

B26 displayed a Kd of 14 ± 0.7 nM.

Molecule B27 came in with a Kd of 15.5 ± 2.6 nM.

(Values after paper PMC10786891, “Massively parallel profiling of RNA-targeting CRISPR-Cas13d”.)
